The results in this text go back to publication PMC11220700, “Activation and Purification of ß‐Glucocerebrosidase by Exploiting its Transporter LIMP‐2 – Implications for Novel Treatment Strategies in Gaucher's and Parkinson's Disease” (Advanced Science, 2024).

The target of one assay is T1, untagged human GCase wt (human, UniProt P04062-1 40-536).
T1 construct: human beta-glucocerebrosidase (GCase) wild type, untagged, secreted into the medium; also called wt GCase; beta-glucocerebrosidase; source: HEK 293F, transfected (with sLIMP-2 or alone), in conditioned medium; co-purified with sLIMP-2 (Ni-NTA, SEC)
T1 sequence (looked up): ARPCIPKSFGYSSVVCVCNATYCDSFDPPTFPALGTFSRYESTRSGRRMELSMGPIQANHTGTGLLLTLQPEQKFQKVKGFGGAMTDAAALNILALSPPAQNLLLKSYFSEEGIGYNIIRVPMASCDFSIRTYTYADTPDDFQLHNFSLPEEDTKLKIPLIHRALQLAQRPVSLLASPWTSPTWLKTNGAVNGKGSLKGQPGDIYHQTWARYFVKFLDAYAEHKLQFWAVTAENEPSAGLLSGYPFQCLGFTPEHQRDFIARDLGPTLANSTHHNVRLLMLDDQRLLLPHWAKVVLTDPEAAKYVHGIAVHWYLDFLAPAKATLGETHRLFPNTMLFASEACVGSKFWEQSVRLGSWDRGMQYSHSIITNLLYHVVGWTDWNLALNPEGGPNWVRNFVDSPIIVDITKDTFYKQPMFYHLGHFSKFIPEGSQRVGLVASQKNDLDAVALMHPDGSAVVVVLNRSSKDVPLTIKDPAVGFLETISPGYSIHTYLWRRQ
The experiment in a line: pull-down; Ni-NTA beads in conditioned medium of HEK 293F cells expressing His-tagged sLIMP-2 with untagged GCase (96 h); overnight at 4 °C; wash with 20 mM imidazole, elution with 400 mM imidazole, pH 8.0; western blot. The conditions noted are these: partners not purified. In general terms: In western blotting, separated proteins are transferred to a membrane and probed.

For the next assay, the target named is T2, untagged GCase E326K (human, UniProt P04062-1 40-536, E326K).
T2 construct: human beta-glucocerebrosidase (GCase), disease-associated variant E326K, untagged; printed also as p.Glu365Lys (NM_000157.4); numbers count on: the mature protein; also called E326K GCase; p.E326K; source: HEK 293F, transfected (with sLIMP-2 or alone), in conditioned medium; co-purified with sLIMP-2 (Ni-NTA, SEC)
T2 sequence (looked up): T1 sequence (looked up) with E326K
The assay is described as above. The conditions noted are these: partners not purified.

Another assay addresses T3, untagged GCase N370S (human, UniProt P04062-1 40-536, N370S).
T3 construct: human beta-glucocerebrosidase (GCase), disease-associated variant N370S, untagged; numbers count on: the mature protein; also called N370S GCase; p.N370S; source: HEK 293F, transfected with sLIMP-2, in conditioned medium; co-purified with sLIMP-2 (Ni-NTA, SEC)
T3 sequence (looked up): T1 sequence (looked up) with N370S
The description is as above. The note with it: partners not purified.

Assay [1] addresses T4, His‐tagged GCase wt (10xHis, C‐terminal, TEV‐cleavable) (human, UniProt P04062-1 40-536, red fluorescent dye NT-637 on amines (RED-NHS labelling kit), for MST).
T4 construct: human beta-glucocerebrosidase (GCase) wild type, secreted from cells transfected with pCMV-3-GBA-His; also called GCase-His; source: HEK 293F, transfected, purified from conditioned medium (Ni-NTA); not shown: 10xHis (TEV-cleavable), C-terminal, kept
T4 sequence (looked up): T1 sequence (looked up)
As to the kind of experiment: MST; GCase-His labelled, L2H5-wt titrated; lysosomal pH (pH 5.0); saturation not reached. The note with it: both partners purified.

Assay [2] concerns the target T4, His‐tagged GCase wt (10xHis, …). As to the kind of experiment: MST; GCase-His labelled with NT-637, fixed at 25 nM; L2H5-wt titrated in a twofold series of 16 from 125 µM; 50 mM sodium citrate + 0.05% Tween-20, pH 7.4 (cytosolic pH); ambient temperature; the two highest concentrations left out of the Kd fit. The conditions noted are these: both partners purified.

Where a chain is given by its changes, count along the chain named. *: point of attachment. Biotin = O=C1N[C@H]2[C@H](CS[C@H]2CCCCC(=O)*)N1

B1: soluble LIMP‐2 (sLIMP‐2), secreted LIMP‐2 ectodomain (domain or fragment, human, UniProt Q14108 36-431, looked up)
chain: SIEKKIVLRNGTEAFDSWEKPPLPVYTQFYFFNVTNPEEILRGETPRVEEVGPYTYRELRNKANIQFGDNGTTISAVSNKAYVFERDQSVGDPKIDLIRTLNIPVLTVIEWSQVHFLREIIEAMLKAYQQKLFVTHTVDELLWGYKDEILSLIHVFRPDISPYFGLFYEKNGTNDGDYVFLTGEDSYLNFTKIVEWNGKTSLDWWITDKCNMINGTDGDSFHPLITKDEVLYVFPSDFCRSVYITFSDYESVQGLPAFRYKVPAEILANTSDNAGFCIPEGNCLGSGVLNVSICKNGAPIIMSFPHFYQADERFVSAIEGMHPNQEDHETFVDINPLTGIILKAAKRFQINIYVKKLDDFVETGDIRTMVFPVMYLNESVHIDKETASRLKSMINT
notes: lysosomal integral membrane protein 2 (LIMP-2), human, luminal domain, amino acids 36-431; also called LIMP-2 shuttle; sLIMP-2-shuttle; source: HEK 293F, transfected, secreted into conditioned medium; purified (Ni-NTA, SEC); not shown: 10xHis (TEV-cleavable), C-terminal, kept
On to B1, for which the binding result with untagged human GCase wt, with untagged GCase E326K and in the assay with untagged GCase N370S was “binds” in each case.

B2: L2H5‐wt peptide (LIMP‐2‐derived helix 5 peptide) (peptide)
peptide: Biotin-KFERQGSGSQVHFLREIIEAMLKAYQSGSGYGRKKRRQRRR-NH2
notes: also called LIMP-2-derived peptide; LIMP-2-mimicking peptide; source: synthetic peptide (BioCat, >95% purity)
With B2, the results for the Kd in assay [1] and in assay [2] were around 98 µM and 0.153 ± 0.037 µM, respectively.

The Kd is a measure of binding affinity in units of concentration.
